Tests used:
[1] = molecular target: gH-Lg CTSCR / HSV-1 gL (herpes simplex virus 1 (strain KOS)) (UniProt P10185); test: split reporter (BiFC, NanoBiT); live CHO effector cells transfected with the two BiT-tagged partners and the remaining HSV-1 proteins required for fusion; Endurazine substrate; luminescence every 2 min at 37°C for 1 h before and 7.5 or 8 h after adding target CHO cells with or without nectin-1; quantified as area under the curve
[2] = molecular target: gH-Lg TMDEBV / HSV-1 gL (herpes simplex virus 1 (strain KOS) | Epstein-Barr virus) (UniProt P10185); test: as above
[3] = molecular target: gH-Lg TMDEBV-CTSCR / HSV-1 gL (herpes simplex virus 1 (strain KOS) | Epstein-Barr virus) (UniProt P10185); test: as above
[4] = molecular target: HSV-1 gH-Lg expressed without gL (herpes simplex virus 1 (strain KOS)) (UniProt P06477); test: split reporter (BiFC, NanoBiT); as the NanoBiT assay in live CHO cells, but in the absence of HSV-1 gL (gH stays in the ER)
Sequence of UniProt P06477 (P06477 19-838): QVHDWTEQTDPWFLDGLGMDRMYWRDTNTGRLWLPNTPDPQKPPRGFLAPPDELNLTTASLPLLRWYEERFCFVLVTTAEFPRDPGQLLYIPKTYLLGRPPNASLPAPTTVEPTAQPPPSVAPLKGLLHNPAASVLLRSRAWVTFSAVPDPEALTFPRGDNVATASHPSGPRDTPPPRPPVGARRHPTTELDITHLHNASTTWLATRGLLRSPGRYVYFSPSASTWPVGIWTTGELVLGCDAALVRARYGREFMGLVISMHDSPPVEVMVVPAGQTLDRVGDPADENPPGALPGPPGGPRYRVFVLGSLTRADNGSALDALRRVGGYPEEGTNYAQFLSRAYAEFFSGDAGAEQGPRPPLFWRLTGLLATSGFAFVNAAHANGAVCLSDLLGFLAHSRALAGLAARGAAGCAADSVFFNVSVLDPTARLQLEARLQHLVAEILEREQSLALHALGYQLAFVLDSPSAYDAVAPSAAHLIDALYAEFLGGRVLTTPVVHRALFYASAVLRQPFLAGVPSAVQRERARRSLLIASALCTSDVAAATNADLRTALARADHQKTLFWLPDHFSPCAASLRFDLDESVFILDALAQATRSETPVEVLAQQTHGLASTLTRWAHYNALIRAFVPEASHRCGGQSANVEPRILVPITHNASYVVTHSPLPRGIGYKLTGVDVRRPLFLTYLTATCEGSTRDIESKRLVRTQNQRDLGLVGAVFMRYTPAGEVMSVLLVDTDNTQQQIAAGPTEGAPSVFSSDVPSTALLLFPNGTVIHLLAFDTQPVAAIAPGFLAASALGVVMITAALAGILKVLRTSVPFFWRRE

Substance | percent of the interaction of WT HSV-1 gH-Lg/gL [1] | percent of the interaction of WT HSV-1 gH-Lg/gL [2] | percent of the interaction of WT HSV-1 gH-Lg/gL [3] | fold reduction in the absence of gL (against gH-Lg/gL) [4] | percent of the interaction of WT HSV-1 gH-Lg [3]
HSV-1 gB-Sm (from UniProt P06437 31-904) (natural protein) | 60% | 60% | 54% |  | 
HSV-1 gD-Sm (from UniProt Q69091 26-394) (natural protein) |  |  |  | 6 fold | 45%

Reference: article PMC9600979
